According to US9603896B2, “Peptide compounds and methods of production and use thereof” (priority 2012, dated 2017):
Ends that are not written are not given here.

Assays:
[1] = system: Pseudomonas clinical isolate B64; experiment: BIOSCREEN C™ growth assay, antibiotic and peptide combinations; type: cell-based, Pseudomonas aeruginosa
Experimental: Cefotaxime (Cefo) and peptide combinations included a constant amount of Cefotaxime (2.81 μg/ml) with suboptimal amounts of peptide (0, 0.34, 1.01, and 3.04 μg/ml).
The peptide and antibiotics were set up in the wells of the microtiter plate at starting ratios of MIC equivalents of antibiotic:peptide at 3:1, 1:1, and 1:3. They were serially diluted to concentrations well below suboptimal/sublethal levels of the antibiotic and peptide. The organism was added (1×10^5 CFU/well), the BIOSCREEN C™ assay (Growth Systems USA, Piscataway, N.J.) was performed, and data was collected over 24 hours.

[2] = type: physicochemical
Description: In the initial stages of the work leading to the presently disclosed and claimed inventive concept(s), sequential addition of amino acids was used to make the peptides. Three candidate peptides (CAP3720-44 (SEQ ID NO:1), CAP3720-44ser26 (SEQ ID NO:2), and CAP3720-44ser42 (SEQ ID NO:5)) were synthesized. […] In one embodiment, a fragment Fmoc condensation strategy was used rather than sequential addition of amino acids. In the fragment condensation method, three small fragments were made and condensed together to form a CAP3720-44ser42 amino acid sequence (SEQ ID NO:5). The rationale behind this reasoning was that three small fragments could be synthesized in a highly purified form and linked together, thereby overcoming some of the aggregation problems. The product from this synthesis was dialyzed against 1% acetic acid and lyophilized and determined to be approximately 50% pure. Antimicrobial activity of this peptide was approximately half of what was normally obtained. In one embodiment, the dialysis procedure was changed to employ a dilute tri-fluoro acetic acid (TFA) solution (e.g., 0.1%), which obtained a product with stronger antimicrobial activity and greater purity (about 80%). In the next production, a cysteine residue was used that was protected during synthesis and then de-protected in the final stages of purification, in an attempt to improve stability.
When the arginines were linked to the peptide to form the peptide backbone (SEQ ID NOs: 18-20), there was marked increase in solubility of the peptides and very potent activity (capable of reducing bacterial load from 1×10^6 CFU/ml to […] CFU/ml, a 5 log reduction). […] Much time and experimental effort was spent in the laboratory exploring purification techniques, but yield and purity could not be increased beyond about 70%. […] Finally, after extensive additional experimentation, another solubilizing moiety was added to the peptides, and this addition increased half-life, solubility, and purity of the peptides. […]

[3] = system: mouse cornea; experiment: In vivo model of corneal wound healing (corneal epithelial abrasion)
Experimental: The in vivo model of wound healing was carried out using a disposable biopsy punch (2 mm, Miltex, York, Pa.) to demarcate the mouse cornea and a 0.5 mm burr using the AlgerBrush II (The Alger Company, Inc., Lago Vista, Tex.) to remove the corneal epithelium. The corneal abrasions were treated at 0 and 16 hours with peptide 95-122 (10^−5 M), peptide 120-146WH (10^−6 M and 10^−8M), peptide 120-146WR ((10^−6 M and 10^−8M), or vehicle control (0.9% sodium chloride, pH 5.5, Baxter, Deerfield, Ill.). Corneal abrasions were visualized using sterile fluorescein sodium ophthalmic strips USP (Fluorets®, Chauvin Laboratory, Aubenas, France) dampened with sterile PBS. Images were taken at 0, 16, and 24 hours immediately following fluorescein staining.
Mice were anesthetized using ketamine (100 mg/kg; Bionichepharma, LLC., St. Lake Forrest, Ill.) and xylazine ([…]; Rompun; Bayer Corp., Shawnee Mission, Kans.), and the right cornea was wounded as follows. A disposable biopsy punch (2 mm, Miltex, York, Pa.) was used to demarcate the mouse cornea. The corneal epithelium was carefully removed within the 2 mm demarcated area with a 0.5 mm burr using the AlgerBrush II (The Alger Company, Inc., Lago Vista, Tex.). The corneal abrasions were treated at 0 and 16 hours with HB-EGF (250 ng/ml), rCAP37 (250 ng/ml), or vehicle control (0.9% sodium chloride, pH 5.5, Baxter, Deerfield, Ill.). Corneal abrasions were visualized using sterile fluorescein sodium ophthalmic strips USP (FLUORETS®, Chauvin Laboratory, Aubenas, France) dampened with sterile PBS. Images were taken at 0, 16, 24, and 48 hours immediately following fluorescein staining using a surgical microscope equipped with a camera (Carl Zeiss OPMI VISU 140, Carl Zeiss Surgical, Inc., Oberkochen, Germany). The areas of the open wound were quantitated using ImageJ software (US National Institutes of Health), and the results were reported as the percentage of wound closure.
Whole mouse eyes were collected for histology at 0, 6, 16, 24, and 48 hours post wounding and were immediately placed in Prefer fixative (Anatech LTD., Battle Creek, Mich.) for 20 minutes before being transferred to 70% ethanol. Tissues were paraffin-embedded and cut at a thickness of 5 μm, mounted on SUPERFROSTPLUS® slides (Statlab Medical Products, Lewisville, Tex.), and subsequently deparaffinized, rehydrated, and washed in deionized water. Sections were stained with hematoxylin (Leica Microsystems, Buffalo Grove, Ill.) and rinsed twice in deionized water before being washed in Blue Buffer (Leica Microsystems). The sections were finally washed in deionized water and 95% ethanol prior to being counterstained with eosin (Leica Microsystems). Sections were dehydrated in ethanol and cleared in xylene.

[4] = system: HCEC monolayers; experiment: In vitro scratch assay of wound closure in HCEC monolayers; type: cell-based, human
Experimental: An in vitro scratch assay was used in order to determine the ability of rCAP37 to facilitate corneal wound healing. Human corneal epithelial cells were cultured as described above until they reached a confluent monolayer. Each monolayer was scratched using a 10 μl pipette tip to create two perpendicular lines. Monolayers were treated with heparin binding-epidermal growth factor (HB-EGF, 250 ng/ml; Becton Dickinson), rCAP37 (25-2000 ng/ml), or basal KSFM (Gibco). Wound closure was monitored at 0, 18, 24, and 48 hours utilizing a camera-equipped inverted microscope (TE2000-E; Nikon, Melville, N.Y.). Time-lapse images of in vitro wound closure were obtained using a camera-equipped inverted microscope (TE2000-E; Nikon) from 0-18 hours. HCEC monolayers were treated with HB-EGF, rCAP37, and basal KSFM as described above. The width of each scratch was quantitated using ImageJ software (US National Institutes of Health, Bethesda, Md.). Results are presented as the percentage of wound closure.

[5] = system: human corneal epithelial cell (HCEC); experiment: HCEC chemotaxis, modified Boyden chemotaxis chamber assay; type: cell-based; conditions: 120-146QH at 10^−4, 10^−6, 10^−8, 10^−10 M; 120-146QR at 10^−6, 10^−8 M; HB-EGF 50 ng/ml; rCAP37 250 ng/ml; 3 hours at 37° C
Experimental: The effect of buffer control (0.1% BSA in Gey's buffer), heparin binding-epidermal growth factor (HB-EGF, 50 ng/ml), recombinant CAP37 (rCAP37, 250 ng/ml), 120-146QH (10^−12M, 10^−10 M, 10^−8 M, 10^−6M, and 10^−4M,) and 120-146QR (10^−10M, 10^−8M, 10^−6M, and 10^−4M) on HCEC chemotaxis was determined by the modified Boyden chemotaxis chamber method. HCEC chemotaxis was measured in response to HB-EGF, rCAP37, and peptides 120-146QH (SEQ ID NO:29) and 120-146QR (SEQ ID NO:28) after incubation for 3 hours at 37° C. Chemotaxis is expressed as a percent migration. The buffer control (no chemoattractant) is arbitrarily assigned the value of 100% migration. Data are expressed as means±SEM and are calculated from 6 observations for each test point. **P<0.01 by Wilcoxon signed-rank test as compared to controls.
Chemotaxis assays were performed using the modified Boyden chemotaxis chamber assay. Peptide 120-146QH was used at 10^−4 M, 10^−6 M, 10^−8 M, 10^−10 M, and 10^−12 M, and peptide 120-146QR was used at 10^−4 M, 10^−6M, 10^−8M, and 10^−10 M.

In the case of `CO/N=C(\C(=O)N[C@@H]1C(=O)N2C(C(=O)O)=C(COC(C)=O)CS[C@H]12)c1csc(N)n1` [Cefotaxime, reference compound], the “bactericidal impact of antibiotic alone” value ([1]; 2.8 μg/ml) is reported as “very little bactericidal impact”.

With `C[C@H]1COc2c(N3CCN(C)CC3)c(F)cc3c(=O)c(C(=O)O)cn1c23` [Levofloxacin, reference compound] the “MIC of Levofloxacin in combination with peptide” value ([1]; in the presence of 3.04 μg/ml of the peptide BCC02-5RMP) was 3.5 µg/mL.

With “NQGRHFCGGALIHARFVMTAASCFQ (listed as Homo sapiens) [CAP3720-44]” the solubility [2] was “relatively insoluble”.

For “NQGRHFCGGALIHARFVMTAASSFQ [CAP3720-44ser42]”, the solubility [2] was “relatively insoluble”.

With “NQGRHFSGGALIHARFVMTAASCFQ [CAP3720-44ser26]” the solubility [2] was “relatively insoluble”.

B1: CAP37: cationic antimicrobial protein of Mr 37 kDa; recombinant CAP37 produced in HEK 293 cells (protein)
chain: IVGGRKARPRQFPFLASIQNQGRHFCGGALIHARFVMTAASCFQSQNPGVSTVVLGAYDLRRRERQSRQTFSISSMSENGYDPQQNLNDLMLLQLDREANLTSSVTILPLPLQNATVEAGTRCQVAGWGSQRSGGRLSRFPRFVNVTVTPEDQCRPNNVCTGVLTRRGGICNGDGGTPLVCEGLAHGVASFSLGPCGRGPDFFTRVALFRDWIDGVLNNPGP
For B1, the “reduction of wound size (wound closure)” value ([3]; 16 hours, 250 ng/ml topical at 0 and 16 hours) was 71%, the “re-epithelialization (H&E histology) vs vehicle-treated wounds” value ([3]; 24 hours, 250 ng/ml) was “greatly accelerated” and the wound closure ([3]; 24 hours, 250 ng/ml topical at 0 and 16 hours) was 83%. The “structural integrity of epithelium (H&E histology)” value ([3]; 48 hours, 250 ng/ml) was “regained full integrity”, the percentage wound closure ([4]; 250 ng/ml, at 18 hours) was roughly 71% and the percentage wound closure ([4]; 500 ng/ml) was “approximately 62%”. The “migration of HCECs vs buffer control” value [5] was “significant increase in migration”.

B2: heparin binding-epidermal growth factor (protein, UniProt Q99075 63-148, looked up)
Heparin-binding EGF-like …: DLQEADLDLLRVTLSSKPQALATPNKEEHGKRKKKGKGLGKKRDPCLRKYKDFCIHGECKYVKELRAPSCICHPGYHGERCHGLSL
notes: positive control growth factor
For B2, the “closure of wounds compared to the buffer control” value ([3]; 250 ng/ml at 0 and 16 hours) was “significantly higher”, the “time to complete closure of scratch wounds” value ([4]; 250 ng/ml) was no more than 24 h and the percentage wound closure ([4]; 250 ng/ml, at 18 hours) was roughly 88%. The “migration of HCECs vs buffer control” value [5] was “significant increase in migration”.
